molecular target: 1_(1-117) (human), Q9H0R8; experiment: FP; conditions: modification not given
Sequence (Q9H0R8 whole entry): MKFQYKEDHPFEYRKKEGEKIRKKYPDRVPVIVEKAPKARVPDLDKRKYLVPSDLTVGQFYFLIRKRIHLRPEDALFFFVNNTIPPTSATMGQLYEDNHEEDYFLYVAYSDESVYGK

Ki [µM] | Binder
3.7 | AGLNSSWVELPMNSS [NIX-P2-LIR]
5.5 | SDNSSGGDDDWTHLSSK [p62-LIR]
163 | LNSGVEYYWDQLNETV [AMBRA1-LIR]

Reference: PMC11589570, “Critical assessment of LC3/GABARAP ligands used for degrader development and ligandability of LC3/GABARAP binding pockets” (Nature Communications, 2024)
